In IntAct's records for PubMed 22555612:

Target: hdac2_mouse Hdac2 (UniProt P70288)
Sequence (P70288 whole entry): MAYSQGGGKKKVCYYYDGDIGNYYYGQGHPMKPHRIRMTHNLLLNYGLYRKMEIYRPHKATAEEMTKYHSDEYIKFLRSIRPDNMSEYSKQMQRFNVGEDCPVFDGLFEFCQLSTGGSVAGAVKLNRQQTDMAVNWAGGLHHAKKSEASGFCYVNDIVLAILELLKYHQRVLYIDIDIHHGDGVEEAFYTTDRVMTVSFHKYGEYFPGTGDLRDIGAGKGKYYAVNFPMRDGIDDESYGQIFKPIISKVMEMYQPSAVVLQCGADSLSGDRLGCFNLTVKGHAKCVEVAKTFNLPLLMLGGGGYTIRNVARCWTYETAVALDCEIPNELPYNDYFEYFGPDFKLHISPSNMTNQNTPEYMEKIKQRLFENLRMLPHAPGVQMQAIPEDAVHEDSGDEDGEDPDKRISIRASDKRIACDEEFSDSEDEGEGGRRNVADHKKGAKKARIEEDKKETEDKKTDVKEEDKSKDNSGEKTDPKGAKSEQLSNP

PR domain zinc finger protein 1 (Homo sapiens), O75626-2 K778R, sequence (O75626 37-825, stated change not applied): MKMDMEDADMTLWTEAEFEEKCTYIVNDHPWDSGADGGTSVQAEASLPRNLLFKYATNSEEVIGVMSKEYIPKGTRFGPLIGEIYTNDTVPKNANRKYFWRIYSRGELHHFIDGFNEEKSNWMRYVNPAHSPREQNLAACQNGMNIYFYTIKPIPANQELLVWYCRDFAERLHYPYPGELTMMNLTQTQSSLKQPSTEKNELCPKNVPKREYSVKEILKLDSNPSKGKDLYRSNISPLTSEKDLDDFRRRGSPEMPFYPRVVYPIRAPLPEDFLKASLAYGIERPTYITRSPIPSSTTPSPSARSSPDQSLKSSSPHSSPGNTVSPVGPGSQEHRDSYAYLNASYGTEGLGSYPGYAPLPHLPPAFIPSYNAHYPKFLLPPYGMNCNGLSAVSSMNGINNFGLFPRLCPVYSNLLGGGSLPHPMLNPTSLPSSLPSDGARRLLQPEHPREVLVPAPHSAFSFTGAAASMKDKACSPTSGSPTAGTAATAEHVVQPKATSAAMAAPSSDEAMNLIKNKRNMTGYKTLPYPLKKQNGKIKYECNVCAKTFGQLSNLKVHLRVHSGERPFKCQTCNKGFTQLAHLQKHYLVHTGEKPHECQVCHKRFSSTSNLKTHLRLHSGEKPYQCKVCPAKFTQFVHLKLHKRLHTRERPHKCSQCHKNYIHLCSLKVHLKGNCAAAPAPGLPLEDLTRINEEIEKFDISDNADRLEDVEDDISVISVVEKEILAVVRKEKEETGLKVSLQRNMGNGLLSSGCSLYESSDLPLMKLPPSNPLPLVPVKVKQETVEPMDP

effect of a mutation on the interaction: decreasing interaction
Substance: PR domain zinc finger protein 1 (Homo sapiens), O75626-2 K778R
